These are literature values, as cited in article PMC7564214.

The term Kd denotes the constant that tells how readily two partners part at equilibrium.

The target of the series is LC3B (Homo sapiens) (UniProt Q9GZQ8).

As to TRIM5α (from UniProt Q9C035), the Kd was 100 µM.
